Experimental data reported in publication PMC11102866, “Nucleosome-bound NR5A2 structure reveals pioneer factor mechanism by DNA minor groove anchor competition”.

How the values were obtained:
NR5A2 wild type = NR5A2 wild type (Homo sapiens, UniProt O00482 1-541); assay: EMSA; EMSA: 20 mM Tris-HCl pH 7.5, 120 mM NaCl, 1 mM MgCl2, 10 uM ZnCl2, 1 mM DTT, 100 ug/ml BSA, room temperature, 30 min; 50 nM DNA or nucleosome; conditions: protein: recombinant; tags: N-terminal His6-TEV, His6 removed with TEV protease
NR5A2 D159A [1] = target: T1, NR5A2 D159A (Homo sapiens, UniProt O00482 1-541, D159A); assay: EMSA; similar to wild type; EMSA: 20 mM Tris-HCl pH 7.5, 120 mM NaCl, 1 mM MgCl2, 10 uM ZnCl2, 1 mM DTT, 100 ug/ml BSA, room temperature, 30 min; 50 nM DNA or nucleosome; conditions: protein: recombinant; tags: N-terminal His6-TEV, His6 removed with TEV protease
NR5A2 D159A [2] = target: T1, NR5A2 D159A; assay: EMSA; slightly less than wild type, not significant; EMSA: 20 mM Tris-HCl pH 7.5, 120 mM NaCl, 1 mM MgCl2, 10 uM ZnCl2, 1 mM DTT, 100 ug/ml BSA, room temperature, 30 min; 50 nM DNA or nucleosome; conditions: protein: recombinant; tags: N-terminal His6-TEV, His6 removed with TEV protease; blunt

B1: 149 bp endogenous mouse DNA (dsDNA)
DNA 1: GGACTGGGACTTCTAAAACAAGACCTTAGTTAGGTGTGGTGCTGCATGCCTTTAATCTCAGCAGTCTGGAGGCAGAGACAGGGAGGTCTCTATGAGTTCAAGGCCAGCCTAATCTACACAGTGAGTTCCAGGACAGTCAGGGCTATAGA
DNA 2: TCTATAGCCCTGACTGTCCTGGAACTCACTGTGTAGATTAGGCTGGCCTTGAACTCATAGAGACCTCCCTGTCTCTGCCTCCAGACTGCTGAGATTAAAGGCATGCAGCACCACACCTAACTAAGGTCTTGTTTTAGAAGTCCCAGTCC
Question: Which results are given for B1?
Answer: binding result (NR5A2 wild type): binds; binding result (NR5A2 D159A [1]): binds

B2: 25 bp DNA with Nr5a2 consensus motif (dsDNA)
DNA 1: GAGAGAGTCAAGGCCATGGCTCACT
DNA 2: AGTGAGCCATGGCCTTGACTCTCTC
Question: Does B2 bind (NR5A2 D159A [2])?
Answer: binds
